Laboratory results reported in paper PMC6459870.

Experiments:
[1] = molecular target: Xenopus laevis CENP-E-GFP construct (1–473 aa), truncated CENP-E motor (Xenopus laevis); assay: fluorescence microscopy of microtubules on protein-coated beads (MT wall-to-end transition assay); GFP-tagged protein held on coverslip-immobilized 0.9 µm streptavidin beads via biotinylated anti-GFP antibody, one protein per bead; HiLyte647-labeled GMPCPP-stabilized MTs in solution; MTs added with 0.1 mM AMP-PNP, then imaging buffer with ATP; BRB80-based buffer; 32 °C; epifluorescence
[2] = molecular target: Human Broccoli Ndc80-GFP complex (human) (UniProt O14777); assay: fluorescence microscopy of microtubules on protein-coated beads (dynamic MT end-coupling assay); beads coated with Ndc80-GFP only (no CENP-E) via anti-GFP antibody; GMPCPP-stabilized MT seeds, then unlabeled soluble tubulin (6 µM) with 1 mM Mg-GTP; 32 °C
[3] = molecular target: Human Broccoli Ndc80-GFP complex (human) (UniProt O14777)

UniProt O14777, sequence (O14777 whole entry, looked up, one chain of several): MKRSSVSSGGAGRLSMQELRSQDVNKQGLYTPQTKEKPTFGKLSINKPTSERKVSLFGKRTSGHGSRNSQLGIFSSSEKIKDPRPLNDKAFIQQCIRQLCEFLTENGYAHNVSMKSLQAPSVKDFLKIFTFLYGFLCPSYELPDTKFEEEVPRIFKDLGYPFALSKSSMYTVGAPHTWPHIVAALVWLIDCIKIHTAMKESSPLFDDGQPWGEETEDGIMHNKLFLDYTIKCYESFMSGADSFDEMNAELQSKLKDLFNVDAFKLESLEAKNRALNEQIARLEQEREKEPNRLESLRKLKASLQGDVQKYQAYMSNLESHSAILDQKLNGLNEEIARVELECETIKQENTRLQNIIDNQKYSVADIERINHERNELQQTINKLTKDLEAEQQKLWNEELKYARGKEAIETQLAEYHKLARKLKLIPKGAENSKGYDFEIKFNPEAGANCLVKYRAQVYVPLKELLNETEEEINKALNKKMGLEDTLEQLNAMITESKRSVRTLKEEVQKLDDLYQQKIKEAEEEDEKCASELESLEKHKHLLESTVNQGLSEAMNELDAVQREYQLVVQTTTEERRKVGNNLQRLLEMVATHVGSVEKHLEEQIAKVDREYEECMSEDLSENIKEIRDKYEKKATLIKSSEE

Work on “Microtubules polymerised from bovine brain tubulin (from UniProt Q6B856 1-445) (complex)” yielded an MT end-retention time [1] of 1.1 min, a percent of MT plus-ends retained at the bead [1] of 24% and a percent of MT segments attached via their ends [2] of 3%. For the same substance, the Kaplan–Meier survival of MT end-attachments on beads coated with CENP-E motor and Ndc80 Broccoli [3] was > 28 min, the MT end-retention time on beads coated with CENP-E motor and Ndc80 Broccoli (wall-to-end transition assay) [3] was 18.1 min and the percent of MT plus-ends retained on beads coated with CENP-E motor and Ndc80 Broccoli (wall-to-end transition assay) [3] was 80%.
